Data on 28 molecules can be found in US20250011363A1, “OPTIMIZED SHORTENED PEPTIDE THAT BINDS TO ACETYLCHOLINE RECEPTOR, AND USE THEREOF” (SKINMED CO., LTD., priority 2021, published 2025).

The target in the experiment is acetylcholine receptor. Nature of the experiment: SPR, acetylcholine receptor on CM5 chip, peptide 10 µM.

B1: 6mer-2-550 (peptide)
peptide: RSFTKK
Consider B1, for which the Binding affinity (RU) came out at 148 RU.

B2: 6mer-2-553 (peptide)
peptide: RSLQKK
Molecule B2 had a Binding affinity (RU) of 124 RU.

B3: 6mer-2-552 (peptide)
peptide: RGLLRR
For the molecule B3, the Binding affinity (RU) is 148 RU.

B4: 6mer-2-561 (peptide)
peptide: RRVLKK
In turn, B4 registered a Binding affinity (RU) of 142 RU.

B5: 6mer-2-562 (peptide)
peptide: RQQRKR
B5: the Binding affinity (RU) turned out to be 136 RU.

B6: 6mer-2-558 (peptide)
peptide: KSVCKK
B6: the Binding affinity (RU) turned out to be 154 RU.

B7: 6mer-2-563 (peptide)
peptide: KGYQKR
For B7, the Binding affinity (RU) stood at 131 RU.

B8: 6mer-2-565 (peptide)
peptide: KSRRRR
As to B8, the Binding affinity (RU) stood at 147 RU.

B9: 6mer-2-554 (peptide)
peptide: RWRCRR
B9 gave a Binding affinity (RU) of 121 RU.

B10: 6mer-2-564 (peptide)
peptide: KQVYRK
As for B10, the Binding affinity (RU) was 148 RU.

B11: 6mer-2-543 (peptide)
peptide: RRQYRR
For the molecule B11, the Binding affinity (RU) was determined as 144 RU.

B12: 6mer-2-569 (peptide)
peptide: RWQLRK
Molecule B12 registered a Binding affinity (RU) of 135 RU.

B13: 6mer-2-549 (peptide)
peptide: KQLCKK
In turn, B13 showed a Binding affinity (RU) of 142 RU.

B14: 6mer-2-559 (peptide)
peptide: KGQLRR
Take B14: the Binding affinity (RU) was found to be 121 RU.

B15: 6mer-2-555 (peptide)
peptide: RSVSKK
B15 registered a Binding affinity (RU) of 154 RU.

B16: 6mer-2-557 (peptide)
peptide: KWVLRK
B16 returned a Binding affinity (RU) of 123 RU.

B17: 6mer-2-566 (peptide)
peptide: KRLSKK
B17 came in with a Binding affinity (RU) of 139 RU.

B18: 6mer-2-546 (peptide)
peptide: RVFTKK
Molecule B18 came in with a Binding affinity (RU) of 127 RU.

B19: 6mer-2-567 (peptide)
peptide: KLYYRK
Take B19: the Binding affinity (RU) was found to be 146 RU.

B20: 6mer-2-547 (peptide)
peptide: RWQCKR
As for B20, the Binding affinity (RU) turned out to be 135 RU.

B21: 6mer-2-560 (peptide)
peptide: RQYTRR
With B21, the Binding affinity (RU) was 153 RU.

B22: 6mer-2-544 (peptide)
peptide: KVIQKR
For the molecule B22, the Binding affinity (RU) was 147 RU.

B23: 6mer-2-545 (peptide)
peptide: KLYCRK
B23 gave a Binding affinity (RU) of 125 RU.

B24: 6mer-2-542 (peptide)
peptide: RQIYRR
B24 yielded a Binding affinity (RU) of 148 RU.

B25: 6mer-2-551 (peptide)
peptide: KWYTKR
The molecule B25 displayed a Binding affinity (RU) of 141 RU.

B26: 6mer-2-548 (peptide)
peptide: RLQCRR
B26 came in with a Binding affinity (RU) of 142 RU.

B27: 6mer-2-556 (peptide)
peptide: RSICKK
The molecule B27 gave a Binding affinity (RU) of 148 RU.

B28: 6mer-2-568 (peptide)
peptide: KGFQKK
B28: the Binding affinity (RU) was determined as 142 RU.
